Source: the supplement of paper PMC10126150
± gives the standard deviation of the averaged measurements.

The sequences below were run on ATP (assay: switch fluorescence ratio, 500 uM ATP over buffer (Cy3 cluster intensity, sum of 5 cycles each) (fold (ratio)); higher = stronger signal-on switching upon ATP binding; sequences stand for … in TCGTCGGCAGCGTCAGATGTGTATAAGAGACAGTTTTTTTTTTTTTTTTTTTTTTTTT…TC). Settings: aptamer strand: ATP DNA aptamer (quencher-CACCTGGGGGAGTATTGCGGAGGAAGG + anchor), 100 nM annealed; ATP concentration: 500 uM.
In short: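 Imaging in selection buffer was followed by imaging after 15 min with 500 uM ATP at 22 °C, for Cy3-labelled switching-strand clusters annealed to 100 nM quencher-labelled ATP aptamer on a modified Illumina MiSeq flow-cell. Five of these buffer/ATP cycles ran, separated by NaOH stripping and re-annealing. The fluorescence ratio per cluster is summed target-cycle over summed buffer-cycle Cy3 intensity, averaged per switch-domain sequence; clusters outside 100-1000 RFU were removed.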
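Also: ATP exposure 15 min at 22 °C before imaging.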

| Sequence | switch fluorescence ratio |
| --- | --- |
| GAAGAAGGGT | 0.99 ± 0.017 |
| CAAATAAGTG | 0.9842 ± 0.0088 |
| ATAAGGAGTA | 1 ± 0.016 |
| CACTTTGTTT | 1.01 ± 0.066 |
| TGATTGATTG | 1.03 ± 0.066 |
| CCCGGAAGTG | 1.24 ± 0.018 |
| TTCTAATGTA | 0.993 ± 0.021 |
| TGATTCTTCG | 1.01 ± 0.023 |
| GGATTTGAAT | 1.03 ± 0.031 |
| GGTGTTTTTG | 1.05 ± 0.054 |
| TGTCGCGTAT | 0.992 ± 0.013 |
| GGATCCATAC | 1.01 ± 0.014 |
| TTGATGAAAT | 0.984 ± 0.014 |
| TTTCAGTATT | 1.01 ± 0.029 |
| GCTATAAGCC | 1.05 ± 0.039 |
| CCGTTTATGA | 1.1 ± 0.047 |
| CGGGATCCAC | 1.01 ± 0.034 |
| TTTTAGATCG | 0.997 ± 0.016 |
| CATTTTAGGG | 0.988 ± 0.027 |
| TGATGTTATG | 0.9911 ± 0.0025 |
| AAAAAGTGAG | 0.973 ± 0.042 |
| GGCAATGAAA | 0.999 ± 0.019 |
| ACTGAATTGG | 1.001 ± 0.0029 |

| Sequence | switch fluorescence ratio |
| --- | --- |
| TTTAGGGGTC | 0.981 ± 0.024 |
| CGAGGGACGG | 0.992 ± 0.024 |
| GGAGGGGGTG | 0.989 ± 0.044 |
| ATTATCCAGC | 1.01 ± 0.017 |
| GCTTTTGTAT | 0.991 ± 0.025 |
| TTAAATAGAT | 1.01 ± 0.02 |
| GCGTTGGGGT | 1.01 ± 0.019 |
| CACGTCGGTA | 1.01 ± 0.015 |
| AGGTTTATTG | 0.993 ± 0.0097 |
| GGGGCTACTT | 1.02 ± 0.013 |
| CTCGGCTGTA | 1.08 ± 0.019 |
| CGTCCTAGGG | 1.04 ± 0.043 |
| CGATGGTTGG | 1.03 ± 0.07 |
| CGATTTAATA | 1.01 ± 0.051 |
| TTTTTAGATA | 0.973 ± 0.038 |
| GGAACTTAAG | 0.9794 ± 0.0043 |
| GCTCAATTTA | 0.9689 ± 0.0083 |
| GTGTCATTTT | 0.991 ± 0.025 |
| AATTGTTGGC | 0.999 ± 0.035 |
| TTTATCTTGT | 0.9852 ± 0.0016 |
| GACCGCATTT | 1.68 ± 0.46 |
| ATAGAGGTAG | 0.976 ± 0.017 |
| CGTTCATGGG | 0.993 ± 0.017 |

| Sequence | switch fluorescence ratio |
| --- | --- |
| ATTTCGTCGT | 1.01 ± 0.03 |
| AGCACGTTAT | 1.256 ± 0.012 |
| AGGGTGACCT | 1.17 ± 0.15 |
| AAATGTTATC | 0.986 ± 0.042 |
| GCTTAGGTCA | 0.982 ± 0.034 |
| TGTAGGGACG | 0.957 ± 0.12 |
| TGAGGGGGAA | 1.03 ± 0.033 |
| TTGATGAATT | 1.01 ± 0.017 |
| TGGTTGAAAT | 0.975 ± 0.028 |
| TGTTGTGTTA | 0.9965 ± 5.6e-06 |
| AGCATGCCTG | 1.02 ± 0.058 |
| GAACTGTTTT | 0.987 ± 0.018 |
| TGTAAAATGT | 0.998 ± 0.029 |
| TCAGATAGCG | 0.98 ± 0.043 |
| AAGGTCTGTG | 0.993 ± 0.014 |
| TACTATACGT | 1.276 ± 0.007 |
| TTATTGGAGC | 0.981 ± 0.015 |
| TTATTTTGTG | 0.987 ± 0.035 |
| AGTTGTGTGC | 0.952 ± 0.044 |
| TCTGCGTCTG | 1.16 ± 0.2 |
| TTTTATTAGT | 0.989 ± 0.044 |
| TTTCTTTATT | 1.05 ± 0.063 |
| GGTTAATGTT | 0.998 ± 0.026 |

| Sequence | switch fluorescence ratio |
| --- | --- |
| CTCATGGTTG | 0.9638 ± 0.007 |
| TTGCTTTTAT | 0.991 ± 0.024 |
| GGGAGTATCT | 0.9998 ± 0.0028 |
| AGTGCAGGTT | 0.97386 ± 7.1e-05 |
| GCGATTTGGC | 1.01 ± 0.056 |
| TTGATACATA | 1.03 ± 0.017 |
| TTGGACATAT | 1.008 ± 0.0039 |
| ACTGATTTTA | 1.01 ± 0.056 |
| AATCGTCTGG | 0.993 ± 0.019 |
| ATCGGTTTCT | 1.002 ± 0.0083 |
| TGCCAATGTG | 0.989 ± 0.013 |
| TTAAATCCGT | 0.989 ± 0.021 |
| TGGGGGTCAT | 1.05 ± 0.061 |
| GGGTCAAGGG | 0.979 ± 0.019 |
| TCAAGTTAGT | 0.985 ± 0.026 |
| GCGGGACTGT | 1.04 ± 0.046 |
| CGCTTTATGT | 1.06 ± 0.18 |
| ACTTTGGGGA | 1.033 ± 0.0065 |
| TAATTATCCG | 1.05 ± 0.044 |
| CGATGGTGTC | 1.01 ± 0.036 |
| AAAATGGTGG | 1.02 ± 0.013 |
| CGATTTAGCG | 0.9773 ± 0.009 |
| ACGGGGGAGA | 1.24 ± 0.35 |

| Sequence | switch fluorescence ratio |
| --- | --- |
| ATTCGTATGT | 1.03 ± 0.03 |
| TAGAAAAATT | 0.993 ± 0.015 |
| AAGCCCTACA | 1.01 ± 0.03 |
| GATTAAGAAT | 1 ± 0.027 |
| CGCGTCCGTC | 1.03 ± 0.056 |
| ATTTTTTAGA | 0.989 ± 0.021 |
| AGTTCTGGGT | 1.04 ± 0.081 |
| TCCACATTCC | 1.57 ± 0.35 |
| GGGGCTATCA | 0.9712 ± 0.0081 |
| TAGGGTTCAG | 0.993 ± 0.029 |
| TGAGGGCAGG | 1.023 ± 0.007 |
| ATATATTTCG | 1.01 ± 0.017 |
| GCTGGGAGAG | 0.989 ± 0.042 |
| TGAGTTGTGT | 1.03 ± 0.075 |
| GCTGTGTAGA | 1.073 ± 0.0021 |
| TCTCGGATGT | 0.99 ± 0.039 |
| CAATGATGCT | 0.935 ± 0.018 |
| TGGGGCGGTG | 1.001 ± 0.0085 |
| TCGAAAGTCT | 0.995 ± 0.012 |
| TAAGGGCAAG | 1.01 ± 0.013 |
| AAACAGTATA | 1.03 ± 0.027 |
| TTTGACCTGG | 0.981 ± 0.043 |
| TGGGGGATTG | 0.987 ± 0.031 |

| Sequence | switch fluorescence ratio |
| --- | --- |
| TAATGTTTGT | 0.986 ± 0.048 |
| GATTGAGATT | 0.981 ± 0.033 |
| GACTTGGTGT | 1.047 ± 0.0092 |
| AGGGTAACTT | 1.01 ± 0.023 |
| TAAACGGGGG | 1.04 ± 0.045 |
| ATATTGTGGG | 0.987 ± 0.023 |
| AGACAAAGCG | 1.03 ± 0.035 |
| TGTTGTTTAC | 1.0216 ± 0.00012 |
| GATTGAAGCC | 0.962 ± 0.064 |
| CTCATTGTTG | 0.992 ± 0.014 |
| AAGGGTGTTG | 1.01 ± 0.017 |
| AGAGTAGAGT | 0.9995 ± 0.0088 |
| ACACATAGAC | 1.17 ± 0.051 |
| TCCCCGTTTC | 1.65 ± 0.75 |
| GGGACGTCGT | 1.04 ± 0.042 |
| TTCAGATAGA | 0.9875 ± 0.0037 |
| AGTCCGTCTA | 1.01 ± 0.05 |
| TTCGGAAAGA | 1.013 ± 0.0082 |
| TTTTGCCATA | 1.02 ± 0.042 |
| TGAACTTAGT | 0.995 ± 0.02 |
| AAGGGGTTTG | 0.969 ± 0.032 |
| CCCAGGCCCG | 1.058 ± 0.0088 |
| TAGGTTTTGG | 0.989 ± 0.035 |

| Sequence | switch fluorescence ratio |
| --- | --- |
| GGGCAAATTC | 1.08 ± 0.02 |
| GTTTTTTTCT | 1 ± 0.051 |
| AAGAAGGGAA | 1.004 ± 0.0068 |
| GCTCAAGCGA | 1.464 ± 0.0035 |
| TTGGTCTTAC | 1.06 ± 0.096 |
| GTTTGTGGAG | 0.9683 ± 0.0071 |
| AGAGAGGGAA | 1 ± 0.025 |
| TGCAGGAGAA | 0.9718 ± 0.0087 |
| GGGTGCTCGG | 1 ± 0.019 |
| GGCCTTGTG | 0.962 ± 0.035 |
| TTTATCAACG | 1.046 ± 0.0027 |
| TCATATTTAA | 1.015 ± 0.0043 |
| ATTAGTTTTT | 0.9731 ± 0.0076 |
| GGCTATTCCT | 1.01 ± 0.0012 |
| AATTAGTTGG | 0.9923 ± 0.0071 |
| ATTGAGGAGA | 0.999 ± 0.033 |
| AAGAGTCTT | 0.963 ± 0.042 |
| GATTAAATAC | 1.24 ± 0.064 |
| TCGACTATTT | 1.04 ± 0.046 |
